Measurements reported in the supplement of paper PMC9112550, “Optimization of the antimicrobial peptide Bac7 by deep mutational scanning” (BMC Biology, 2022).

Test system: Escherichia coli TOP10
Assay: shrunken log2 fold change of peptide-encoding DNA abundance (4.5 h post-induction vs induction); higher = less antimicrobial activity (less host growth inhibition)
Settings: time post-induction: 4.5 h; library: site-saturation at positions 5, 18, 19, 20
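Note: peptides expressed intracellularly from a pBAD plasmid library in pooled LB shake-flask culture, induced with 0.3% L-arabinose, DNA abundance read by NGS, three biological replicates, DESeq2 with apeglm shrinkage.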

Row | Sequence | shrunken log2 fold change
1 | RRIRTRPPRLPRPRPRPYDLPRP | -0.14
2 | RRIRTRPPRLPRPRPRPYESPRP | -0.00247
3 | RRIRTRPPRLPRPRPRPYFYPRP | -0.842
4 | RRIRTRPPRLPRPRPRPYGLPRP | 4.72
5 | RRIRTRPPRLPRPRPRPYGVPRP | 0.0122
6 | RRIRTRPPRLPRPRPRPYHKPRP | -0.426
7 | RRIRTRPPRLPRPRPRPYINPRP | -0.879
8 | RRIRTRPPRLPRPRPRPYKHPRP | -0.518
9 | RRIRTRPPRLPRPRPRPYKMPRP | -0.0239
10 | RRIRTRPPRLPRPRPRPYKRPRP | -0.29
11 | RRIRTRPPRLPRPRPRPYLHPRP | -0.367
12 | RRIRTRPPRLPRPRPRPYLNPRP | -0.484
13 | RRIRTRPPRLPRPRPRPYMDPRP | -1.37
14 | RRIRTRPPRLPRPRPRPYMEPRP | 2.39
15 | RRIRTRPPRLPRPRPRPYMPPRP | -1.27
16 | RRIRTRPPRLPRPRPRPYMVPRP | -1.93
17 | RRIRTRPPRLPRPRPRPYPLPRP | 0.0692
18 | RRIRTRPPRLPRPRPRPYQHPRP | -0.376
19 | RRIRTRPPRLPRPRPRPYRCPRP | -0.123
20 | RRIRTRPPRLPRPRPRPYRLPRP | -0.0268
21 | RRIRTRPPRLPRPRPRPYRWPRP | -0.281
22 | RRIRTRPPRLPRPRPRPYSAPRP | -0.206
23 | RRIRTRPPRLPRPRPRPYSTPRP | -0.0702
24 | RRIRTRPPRLPRPRPRPYVIPRP | -1.03
25 | RRIRTRPPRLPRPRPRPYWSPRP | 0.00748

Row | Sequence | shrunken log2 fold change
26 | RRIRTRPPRLPRPRPRPYYFPRP | -0.783
27 | RRIRTRPPRLPRPRPRPYYYPRP | -1.2
28 | RRIRVRPPRLPRPRPRPAAPPRP | 0.452
29 | RRIRVRPPRLPRPRPRPAAWPRP | 0.136
30 | RRIRVRPPRLPRPRPRPACCPRP | 0.161
31 | RRIRVRPPRLPRPRPRPACWPRP | 0.517
32 | RRIRVRPPRLPRPRPRPADDPRP | 0.203
33 | RRIRVRPPRLPRPRPRPADHPRP | 0.206
34 | RRIRVRPPRLPRPRPRPADLPRP | 0.0387
35 | RRIRVRPPRLPRPRPRPADRPRP | 0.194
36 | RRIRVRPPRLPRPRPRPAEHPRP | -0.086
37 | RRIRVRPPRLPRPRPRPAHAPRP | 0.068
38 | RRIRVRPPRLPRPRPRPAHFPRP | 0.31
39 | RRIRVRPPRLPRPRPRPAHGPRP | 0.0221
40 | RRIRVRPPRLPRPRPRPAIIPRP | -0.425
41 | RRIRVRPPRLPRPRPRPAILPRP | -0.204
42 | RRIRVRPPRLPRPRPRPAKQPRP | -0.0993
43 | RRIRVRPPRLPRPRPRPAKWPRP | 0.153
44 | RRIRVRPPRLPRPRPRPALNPRP | -0.142
45 | RRIRVRPPRLPRPRPRPAMHPRP | 0.0999
46 | RRIRVRPPRLPRPRPRPAMLPRP | 0.0111
47 | RRIRVRPPRLPRPRPRPAMPPRP | 0.0637
48 | RRIRVRPPRLPRPRPRPAMYPRP | 3.58
49 | RRIRVRPPRLPRPRPRPAPEPRP | 0.514
50 | RRIRVRPPRLPRPRPRPAPPPRP | 0.577

Row | Sequence | shrunken log2 fold change
51 | RRIRVRPPRLPRPRPRPAQNPRP | 0.261
52 | RRIRVRPPRLPRPRPRPAQVPRP | 0.427
53 | RRIRVRPPRLPRPRPRPARLPRP | 0.266
54 | RRIRVRPPRLPRPRPRPASVPRP | 0.0346
55 | RRIRVRPPRLPRPRPRPATPPRP | 0.35
56 | RRIRVRPPRLPRPRPRPAVHPRP | -0.021
57 | RRIRVRPPRLPRPRPRPAVNPRP | 0.138
58 | RRIRVRPPRLPRPRPRPAWTPRP | -0.0585
59 | RRIRVRPPRLPRPRPRPAYCPRP | -0.112
60 | RRIRVRPPRLPRPRPRPCATPRP | 0.0911
61 | RRIRVRPPRLPRPRPRPCGTPRP | -0.317
62 | RRIRVRPPRLPRPRPRPCHVPRP | -0.859
63 | RRIRVRPPRLPRPRPRPCISPRP | 0.00333
64 | RRIRVRPPRLPRPRPRPCKSPRP | -0.214
65 | RRIRVRPPRLPRPRPRPCLAPRP | -0.0591
66 | RRIRVRPPRLPRPRPRPCMDPRP | -0.836
67 | RRIRVRPPRLPRPRPRPCMPPRP | 0.112
68 | RRIRVRPPRLPRPRPRPCMVPRP | -0.614
69 | RRIRVRPPRLPRPRPRPCPVPRP | -0.0687
70 | RRIRVRPPRLPRPRPRPCQAPRP | -0.0137
71 | RRIRVRPPRLPRPRPRPCRFPRP | -0.464
72 | RRIRVRPPRLPRPRPRPCSVPRP | -0.0384
73 | RRIRVRPPRLPRPRPRPCYAPRP | -0.162
74 | RRIRVRPPRLPRPRPRPDCLPRP | -0.318
75 | RRIRVRPPRLPRPRPRPDDEPRP | -0.125

Row | Sequence | shrunken log2 fold change
76 | RRIRVRPPRLPRPRPRPDDGPRP | 0.0292
77 | RRIRVRPPRLPRPRPRPDEEPRP | 0.393
78 | RRIRVRPPRLPRPRPRPDEWPRP | 0.0467
79 | RRIRVRPPRLPRPRPRPDFEPRP | 0.0704
80 | RRIRVRPPRLPRPRPRPDFQPRP | -0.163
81 | RRIRVRPPRLPRPRPRPDGIPRP | -0.173
82 | RRIRVRPPRLPRPRPRPDGWPRP | 0.223
83 | RRIRVRPPRLPRPRPRPDHFPRP | -0.0417
84 | RRIRVRPPRLPRPRPRPDLCPRP | 0.0475
85 | RRIRVRPPRLPRPRPRPDLYPRP | -0.35
86 | RRIRVRPPRLPRPRPRPDNNPRP | -0.796
87 | RRIRVRPPRLPRPRPRPDNRPRP | -0.00604
88 | RRIRVRPPRLPRPRPRPDPGPRP | -0.321
89 | RRIRVRPPRLPRPRPRPDQHPRP | -0.0679
90 | RRIRVRPPRLPRPRPRPDQWPRP | -0.0427
91 | RRIRVRPPRLPRPRPRPDRCPRP | 0.0141
92 | RRIRVRPPRLPRPRPRPDRFPRP | 0.0559
93 | RRIRVRPPRLPRPRPRPDRQPRP | -0.215
94 | RRIRVRPPRLPRPRPRPDRSPRP | -0.039
95 | RRIRVRPPRLPRPRPRPDRWPRP | 0.478
96 | RRIRVRPPRLPRPRPRPDSFPRP | -0.0784
97 | RRIRVRPPRLPRPRPRPDSQPRP | -0.116
98 | RRIRVRPPRLPRPRPRPDTLPRP | -0.712
99 | RRIRVRPPRLPRPRPRPDVNPRP | -0.172
100 | RRIRVRPPRLPRPRPRPDWHPRP | -0.0256

Row | Sequence | shrunken log2 fold change
101 | RRIRVRPPRLPRPRPRPDYAPRP | -0.0204
102 | RRIRVRPPRLPRPRPRPDYHPRP | -0.558
103 | RRIRVRPPRLPRPRPRPDYLPRP | -0.222
104 | RRIRVRPPRLPRPRPRPEADPRP | 0.0974
105 | RRIRVRPPRLPRPRPRPEALPRP | -0.00459
106 | RRIRVRPPRLPRPRPRPEAQPRP | 0.112
107 | RRIRVRPPRLPRPRPRPEASPRP | 0.0108
108 | RRIRVRPPRLPRPRPRPEATPRP | 0.92
109 | RRIRVRPPRLPRPRPRPECHPRP | 0.241
110 | RRIRVRPPRLPRPRPRPEDRPRP | 0.0837
111 | RRIRVRPPRLPRPRPRPEEHPRP | -0.0681
112 | RRIRVRPPRLPRPRPRPEFIPRP | -0.176
113 | RRIRVRPPRLPRPRPRPEGIPRP | -0.0615
114 | RRIRVRPPRLPRPRPRPEHIPRP | -0.0362
115 | RRIRVRPPRLPRPRPRPEHLPRP | -0.171
116 | RRIRVRPPRLPRPRPRPEIQPRP | 0.349
117 | RRIRVRPPRLPRPRPRPEKIPRP | -0.191
118 | RRIRVRPPRLPRPRPRPELCPRP | 0.0749
119 | RRIRVRPPRLPRPRPRPELFPRP | 0.181
120 | RRIRVRPPRLPRPRPRPEMAPRP | 0.311
121 | RRIRVRPPRLPRPRPRPENNPRP | 0.00554
122 | RRIRVRPPRLPRPRPRPEPGPRP | 0.547
123 | RRIRVRPPRLPRPRPRPEPIPRP | 0.0124
124 | RRIRVRPPRLPRPRPRPEQNPRP | 0.316
125 | RRIRVRPPRLPRPRPRPERPPRP | 0.0183

Row | Sequence | shrunken log2 fold change
126 | RRIRVRPPRLPRPRPRPESGPRP | 0.177
127 | RRIRVRPPRLPRPRPRPESQPRP | -0.0489
128 | RRIRVRPPRLPRPRPRPETEPRP | 0.276
129 | RRIRVRPPRLPRPRPRPETVPRP | -0.103
130 | RRIRVRPPRLPRPRPRPEVNPRP | -0.0796
131 | RRIRVRPPRLPRPRPRPEVSPRP | 0.0554
132 | RRIRVRPPRLPRPRPRPEWDPRP | 0.454
133 | RRIRVRPPRLPRPRPRPEYFPRP | -0.285
134 | RRIRVRPPRLPRPRPRPEYLPRP | -0.191
135 | RRIRVRPPRLPRPRPRPEYTPRP | -0.0361
136 | RRIRVRPPRLPRPRPRPFAAPRP | 0.15
137 | RRIRVRPPRLPRPRPRPFAGPRP | 0.03
138 | RRIRVRPPRLPRPRPRPFATPRP | 0.276
139 | RRIRVRPPRLPRPRPRPFDQPRP | -0.365
140 | RRIRVRPPRLPRPRPRPFFCPRP | -0.00678
141 | RRIRVRPPRLPRPRPRPFGLPRP | -0.0857
142 | RRIRVRPPRLPRPRPRPFHNPRP | -0.0884
143 | RRIRVRPPRLPRPRPRPFKPPRP | -0.132
144 | RRIRVRPPRLPRPRPRPFLNPRP | -0.148
145 | RRIRVRPPRLPRPRPRPFLSPRP | -0.567
146 | RRIRVRPPRLPRPRPRPFMDPRP | -0.36
147 | RRIRVRPPRLPRPRPRPFNGPRP | -0.15
148 | RRIRVRPPRLPRPRPRPFNIPRP | -0.425
149 | RRIRVRPPRLPRPRPRPFPLPRP | -0.566
150 | RRIRVRPPRLPRPRPRPFRYPRP | -0.0399
